Experimental data: PMC11490872, “Drug-resistant menin variants retain high binding affinity and interactions with MLL1” (The Journal of Biological Chemistry, 2024)
Where two headings read alike, the source gives them in different places.

Molecular target: T1, menin^WT (Homo sapiens, UniProt O00255)
T1 construct: Full-length human menin was expressed in BL21(DE3) cells; thioredoxin-His6 (cleaved yes); made in house; host or cells: E. coli BL21(DE3)
T1 sequence (O00255 1-610): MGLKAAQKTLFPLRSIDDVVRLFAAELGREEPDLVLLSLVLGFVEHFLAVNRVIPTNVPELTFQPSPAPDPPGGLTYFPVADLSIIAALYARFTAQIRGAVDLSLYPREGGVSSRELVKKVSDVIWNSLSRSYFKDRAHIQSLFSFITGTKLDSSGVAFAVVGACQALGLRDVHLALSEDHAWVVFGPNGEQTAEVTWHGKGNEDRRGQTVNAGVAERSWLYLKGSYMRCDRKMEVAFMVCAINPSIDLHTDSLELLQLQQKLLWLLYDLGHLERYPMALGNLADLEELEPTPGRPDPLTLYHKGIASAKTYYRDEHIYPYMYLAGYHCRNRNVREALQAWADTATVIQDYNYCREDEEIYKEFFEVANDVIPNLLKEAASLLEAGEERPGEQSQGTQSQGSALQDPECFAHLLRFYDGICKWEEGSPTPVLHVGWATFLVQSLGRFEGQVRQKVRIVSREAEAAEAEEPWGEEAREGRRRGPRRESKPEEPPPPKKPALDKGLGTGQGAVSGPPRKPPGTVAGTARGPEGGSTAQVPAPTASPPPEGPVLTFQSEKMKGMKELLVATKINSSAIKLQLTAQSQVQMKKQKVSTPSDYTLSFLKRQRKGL
Assay: ITC binding of MLL1 fragments to menin^WT
Description: Menin and MLL1 fragments were dialyzed at 4 °C against a 50 mM sodium phosphate pH 7.5, 50 mM NaCl, 1 mM TCEP buffer, and degassed prior to measurement. The titrations were performed using the VP-ITC system (MicroCal) at 25 °C. The calorimetric cell, which contained menin (concentrations in the 5–10 μM range), was titrated with the MLL1^160 and MLL1^4-15 derived peptides (concentration range 40–100 μM) injected in 10-μL aliquots. Data was analyzed using Origin 7.0 (OriginLab) to obtain Kd, stoichiometry, entropy, and enthalpy ([2]). Experiments with WT, M327I, T349M, and G331R menin and MLL1^160 or MLL1^4-15 were run in duplicate. Experiments with G331D menin and MLL1^160 were run in duplicate while experiments with G331D and MLL1^4-15 were run in quadruplicate.

B1: MLL1^160: N-terminal 160 amino acids of human MLL1, Cys2 mutated to alanine, recombinant (protein)
chain: MAHSARWRFPARPGTTGGGGGGGRRGLGGAPRQRVPALLLPPGPPVGGGGPGAPPSPPAVAAAAAAAGSSGAGVPGGAAAASAASSSSASSSSSSSSSASSGPALLRVGPGFDAALQVSAAIGTNLRRFRAVFGESGGGGGSGEDEQFLGFGSDEEVRVR
modifications: The printed 'Cys2' is the single N-terminal cysteine, Cys5 in the entry (peptide S4-A5-R6); Trx-His6 tag cleaved
ITC summary Fig. 1B, values marked *, n = 2, read-out: WT Kd (nM), ITC
  Kd: 0.5 ± 0.3 nM
ITC, representative binding isotherm Fig. 1A, 25 °C, read-out: Kd
  Kd: 0.5 ± 0.2 nM
